What was measured:
Experiment in all cases: biochemical
Assay type in all cases: biochemical
266 human kinases [1] = target: T1, 266 human kinases (Homo sapiens, UniProt Q6PHR2); conditions: ULK3(h); 100 μM
T1 sequence (Q6PHR2 1-472): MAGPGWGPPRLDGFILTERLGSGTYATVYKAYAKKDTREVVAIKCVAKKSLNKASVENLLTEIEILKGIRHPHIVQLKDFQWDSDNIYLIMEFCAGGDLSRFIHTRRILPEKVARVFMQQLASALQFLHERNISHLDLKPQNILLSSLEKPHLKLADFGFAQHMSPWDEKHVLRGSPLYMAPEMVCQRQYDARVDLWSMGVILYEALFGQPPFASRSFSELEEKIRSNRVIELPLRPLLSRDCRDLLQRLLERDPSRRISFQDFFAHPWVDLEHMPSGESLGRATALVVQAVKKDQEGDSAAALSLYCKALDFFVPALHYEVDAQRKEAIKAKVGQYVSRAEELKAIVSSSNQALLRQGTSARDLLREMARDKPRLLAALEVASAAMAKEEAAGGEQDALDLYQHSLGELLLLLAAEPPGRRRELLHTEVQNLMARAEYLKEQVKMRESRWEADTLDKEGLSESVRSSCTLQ
Procedure, shortened: (§1)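 Inhibition was judged from reduced transfer of labelled phosphate from ATP to a positively charged substrate, which was captured on a negatively charged membrane and quantified by scintillation counting against a 100% activity control.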

266 human kinases [2] = target: 266 human kinases (Homo sapiens, UniProt P08581, D1228N); conditions: Met(D1246N)(h); 100 μM
Procedure, shortened: as §1

266 human kinases [3] = target: T2, 266 human kinases (Homo sapiens, UniProt Q9BZL6); conditions: PKD2(h); 100 μM
T2 sequence (Q9BZL6 1-878): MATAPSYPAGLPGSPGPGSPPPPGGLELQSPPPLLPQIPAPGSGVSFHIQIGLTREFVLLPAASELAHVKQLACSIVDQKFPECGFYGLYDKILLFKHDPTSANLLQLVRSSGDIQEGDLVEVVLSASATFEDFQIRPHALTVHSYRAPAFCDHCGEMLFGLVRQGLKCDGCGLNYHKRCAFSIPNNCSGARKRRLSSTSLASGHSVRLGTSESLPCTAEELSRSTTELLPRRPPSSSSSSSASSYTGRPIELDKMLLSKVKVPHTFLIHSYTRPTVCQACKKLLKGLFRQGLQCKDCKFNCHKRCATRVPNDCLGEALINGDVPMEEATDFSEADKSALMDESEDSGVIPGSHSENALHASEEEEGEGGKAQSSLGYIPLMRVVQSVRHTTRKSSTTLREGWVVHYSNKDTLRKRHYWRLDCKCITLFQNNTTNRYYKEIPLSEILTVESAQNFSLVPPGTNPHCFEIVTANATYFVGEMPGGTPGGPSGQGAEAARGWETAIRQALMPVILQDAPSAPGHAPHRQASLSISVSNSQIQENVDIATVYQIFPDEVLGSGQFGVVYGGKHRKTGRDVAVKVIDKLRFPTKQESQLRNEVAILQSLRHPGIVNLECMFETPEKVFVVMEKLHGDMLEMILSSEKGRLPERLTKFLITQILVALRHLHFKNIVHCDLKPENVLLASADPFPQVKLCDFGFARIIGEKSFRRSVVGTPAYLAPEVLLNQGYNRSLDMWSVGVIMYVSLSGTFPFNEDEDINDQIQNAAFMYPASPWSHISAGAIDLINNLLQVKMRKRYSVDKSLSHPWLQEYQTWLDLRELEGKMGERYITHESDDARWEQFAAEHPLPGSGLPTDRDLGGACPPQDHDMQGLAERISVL
Procedure, shortened: as §1

266 human kinases [4] = target: T3, 266 human kinases (Homo sapiens, UniProt Q8IYT8); conditions: ULK2(h); 100 μM
T3 sequence (Q8IYT8 1-1036): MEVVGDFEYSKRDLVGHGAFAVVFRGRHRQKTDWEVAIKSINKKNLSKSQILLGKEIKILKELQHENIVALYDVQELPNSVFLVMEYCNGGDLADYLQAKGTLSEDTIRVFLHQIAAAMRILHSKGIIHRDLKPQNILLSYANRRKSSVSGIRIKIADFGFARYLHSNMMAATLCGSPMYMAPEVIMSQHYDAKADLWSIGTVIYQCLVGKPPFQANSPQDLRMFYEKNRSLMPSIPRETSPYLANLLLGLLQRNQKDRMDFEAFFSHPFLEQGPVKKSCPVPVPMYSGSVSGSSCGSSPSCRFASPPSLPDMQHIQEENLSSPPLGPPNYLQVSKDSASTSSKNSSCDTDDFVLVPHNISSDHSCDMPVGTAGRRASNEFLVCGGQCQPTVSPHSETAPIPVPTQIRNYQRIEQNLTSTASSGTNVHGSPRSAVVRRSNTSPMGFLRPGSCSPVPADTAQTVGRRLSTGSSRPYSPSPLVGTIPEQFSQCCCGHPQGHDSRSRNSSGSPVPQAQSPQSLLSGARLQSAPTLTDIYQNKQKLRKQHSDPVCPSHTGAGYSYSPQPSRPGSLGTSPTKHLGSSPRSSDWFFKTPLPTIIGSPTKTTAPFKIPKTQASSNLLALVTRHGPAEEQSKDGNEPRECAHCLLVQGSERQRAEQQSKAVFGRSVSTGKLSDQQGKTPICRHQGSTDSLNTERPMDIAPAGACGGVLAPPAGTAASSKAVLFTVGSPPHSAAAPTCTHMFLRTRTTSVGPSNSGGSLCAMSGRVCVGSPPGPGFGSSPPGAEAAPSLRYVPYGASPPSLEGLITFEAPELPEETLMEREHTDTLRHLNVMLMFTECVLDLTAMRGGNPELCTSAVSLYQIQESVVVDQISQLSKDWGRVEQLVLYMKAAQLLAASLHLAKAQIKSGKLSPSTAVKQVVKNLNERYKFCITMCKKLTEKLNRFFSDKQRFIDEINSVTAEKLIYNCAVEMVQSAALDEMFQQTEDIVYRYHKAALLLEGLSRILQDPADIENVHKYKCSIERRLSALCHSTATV
Procedure, shortened: as §1

266 human kinases [5] = target: 266 human kinases (Homo sapiens, UniProt P07949, V804L); conditions: Ret(V804L)(h); 100 μM
Procedure, shortened: as §1

266 human kinases [6] = target: 266 human kinases (Homo sapiens, UniProt P30530); conditions: Axl(h); 100 μM
Procedure, shortened: as §1

266 human kinases [7] = target: 266 human kinases (Homo sapiens, UniProt P07333); conditions: Fms(h); 100 μM
Procedure, shortened: as §1

266 human kinases [8] = target: 266 human kinases (Homo sapiens, UniProt P54756); conditions: EphA5(h); 100 μM
Procedure, shortened: as §1

Chain of 266 human kinases (Homo sapiens, UniProt P54756) (P54756 25-1037): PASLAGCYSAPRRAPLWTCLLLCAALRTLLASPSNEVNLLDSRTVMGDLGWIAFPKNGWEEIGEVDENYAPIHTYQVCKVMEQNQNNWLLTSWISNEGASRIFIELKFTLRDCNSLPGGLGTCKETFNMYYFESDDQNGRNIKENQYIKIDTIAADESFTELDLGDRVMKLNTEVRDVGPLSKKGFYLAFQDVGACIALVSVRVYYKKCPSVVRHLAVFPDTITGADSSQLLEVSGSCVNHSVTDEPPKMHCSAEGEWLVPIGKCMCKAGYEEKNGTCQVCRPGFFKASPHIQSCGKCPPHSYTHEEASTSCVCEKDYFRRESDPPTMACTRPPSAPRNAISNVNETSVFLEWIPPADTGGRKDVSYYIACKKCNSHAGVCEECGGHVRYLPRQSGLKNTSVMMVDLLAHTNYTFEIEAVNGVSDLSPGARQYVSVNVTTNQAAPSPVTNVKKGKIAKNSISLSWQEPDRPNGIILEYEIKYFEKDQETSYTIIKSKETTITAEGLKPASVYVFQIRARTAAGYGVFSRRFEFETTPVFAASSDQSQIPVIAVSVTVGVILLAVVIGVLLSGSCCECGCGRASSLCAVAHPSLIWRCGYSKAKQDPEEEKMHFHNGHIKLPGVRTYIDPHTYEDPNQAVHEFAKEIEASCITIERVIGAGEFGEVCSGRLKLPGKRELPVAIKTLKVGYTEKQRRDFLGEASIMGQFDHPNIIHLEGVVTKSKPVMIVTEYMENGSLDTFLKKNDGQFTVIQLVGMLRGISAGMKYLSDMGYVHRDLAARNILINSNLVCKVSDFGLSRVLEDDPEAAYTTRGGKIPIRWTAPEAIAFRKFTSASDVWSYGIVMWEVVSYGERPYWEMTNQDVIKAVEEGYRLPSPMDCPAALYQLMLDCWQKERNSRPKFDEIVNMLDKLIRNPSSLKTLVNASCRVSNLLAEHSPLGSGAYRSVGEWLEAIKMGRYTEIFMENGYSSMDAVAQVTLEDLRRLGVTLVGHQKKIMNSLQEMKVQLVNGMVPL

Sequence: HRRIKAWLKKIKALARQLGVAA (mammal) [MMI-0500]
- % activity (266 human kinases [1]): 177%
- % activity (266 human kinases [2]): 90%
- % activity (266 human kinases [3]): 10%
- % activity (266 human kinases [4]): 124%
- % activity (266 human kinases [5]): 20%
- % activity (266 human kinases [6]): 12%
- % activity (266 human kinases [7]): 14%
- % activity (266 human kinases [8]): 42%

Sequence: YARAAARQARAKALNRQLGVA (mammal) [MMI-0200]
- % activity (266 human kinases [1]): 164%
- % activity (266 human kinases [2]): 149%
- % activity (266 human kinases [3]): 78%
- % activity (266 human kinases [4]): 132%
- % activity (266 human kinases [5]): 100%
- % activity (266 human kinases [6]): 99%
- % activity (266 human kinases [7]): 92%
- % activity (266 human kinases [8]): 123%

Source: patent US20140072613A1, “Compositions and Methods for Treating Cutaneous Scarring” (priority 2012, published 2014)
